Experimental findings from paper PMC8925968 are described below.

Series [1] has as its target T1, PTBP1 (GST-SBP-PTBP1) (UniProt P26599-1 1-531). Briefly: fluorescence polarization. For orientation: In fluorescence polarisation assays a small probe gives low polarisation when free and higher when bound to something large.
The target of series [2] is T1, PTBP1 (GST-SBP-PTBP1). Briefly: bead pull-down with RT-qPCR. For orientation: In qPCR the cycle at which signal appears reflects the starting amount.

A word on the Kd: it is the free concentration of one partner at which half of the binding sites on the other are occupied at equilibrium, for simple one-to-one binding. A lower Kd goes with tighter binding. With CUCUCUGAACACUCUCU (ssRNA) [Capzb intron oligo], in the series with PTBP1 (GST-SBP-PTBP1) [1], the Kd was about 3 nM.

B1: Capzb intron WT transcript with adapters (ssRNA)
RNA: AGUUGUACAGUCCGACGAUGCGGUGGCCUUCUCCUGUCUCUGCCUUUGCCCACGGCUGCCAGGUUCUUGUUCGGCAUUGCUGUUGCUCUCUUGCUGUGGCUUCACCCUCUCUGAACACUCUCUGUAGUGCAGUCGUCGAGUGUCAACG
As for B1, the binding result in the series with PTBP1 (GST-SBP-PTBP1) [2] is given as “binds”.

In the series with PTBP1 (GST-SBP-PTBP1) [1], CUCUCUCUCUCUCUCUC (ssRNA) [Fnbp1 intron oligo] returned a Kd of about 2 nM.

CUUUCUCUCAAGCU (ssRNA) [Fnbp1 exon oligo] had a Kd in the series with PTBP1 (GST-SBP-PTBP1) [1] of about 8 nM.

For AUCUCUUGAUGCUAUCC (ssRNA) [Capzb exon oligo], the Kd in the series with PTBP1 (GST-SBP-PTBP1) [1] is about 6 nM.
